The target of one test is T1, ADI-26919.
T1 construct: anti-CD3 antibody made in CHO cells, captured by anti-human Fc
The experiment in a line: SPR Carterra avidity, CHO anti-ID, *koff limit. The protocol:
(§1) Kinetic analysis was conducted at 25° C. in an HBSTE running buffer system (Carterra Cat #3630) using a Carterra LSA (Carterra USA, Salt Lake City, UT). The sample compartment was maintained at 20° C. for the duration of each experiment.
(§2) For antibody capture experiments, a goat anti-human Fc antibody (Jackson ImmunoResearch) was covalently coupled to an HC30M sensor chip surface via standard amine coupling (1:1 EDC:NHS) and then blocked with ethanolamine (1.0 M, pH 8.5). Covalent coupling steps were performed in 25 mM MES buffer (Carterra, Cat #3625) plus 0.05% Tween20. The anti-CD3 antibodies (100 nM in running buffer) were flowed over discrete regions of interest on the chip surface for 5 minutes. […] Dissociation of the anti-idiotype antibodies was monitored for 300s. Several blank buffer samples were injected over the entire chip surface at the start of each non-regenerative kinetic cycle. The preceding blank buffer injection was used for blank surface subtraction. At the end of each non-regenerative kinetic cycle, all surfaces were regenerated via two 30s injections of 10 mM glycine, pH 1.7.
(§3) For data processing and fitting, sensorgrams were double reference subtracted with a baseline drift correction of 4 RU. Sensorgrams were y-aligned and baseline corrected, filtered and cropped to include only the association and dissociation steps. Data was fitted to a 1:1 binding model using Carterra Kinetics Data Analysis software version 1.7.1.3055.

Another test addresses T2, ADI-26943.
T2 construct: anti-CD3 antibody made in CHO cells, captured by anti-human Fc
Briefly: SPR Carterra avidity, CHO anti-ID, *koff limit. The protocol: as §1, §2, §3

A further test concerns the target T3, CTL-62223.
T3 construct: also called mosunetuzumab
Briefly: SPR Carterra avidity, CHO anti-ID, *koff limit. How it is done:
as §1, §2, §3

Another test deals with T4, ADI-50024.
T4 construct: anti-CD3 antibody made in CHO cells, captured by anti-human Fc
Briefly: SPR Carterra avidity, CHO anti-ID, *koff limit. The protocol:
as §1, §2, §3

In the next test the target is T5, ADI-67445.
T5 construct: anti-CD3 antibody made in CHO cells, captured by anti-human Fc
Briefly: SPR Carterra avidity, CHO anti-ID, *koff limit. How it is done: as §1, §2, §3

For another test, the target named is T6, ADI-74967.
T6 construct: pH-dependent anti-CD3 antibody made in CHO cells
The experiment in a line: SPR Carterra avidity, CHO anti-ID, *koff limit. The protocol:
as §1, §2, §3

The target in the next test is T7, ADI-26924.
T7 construct: anti-CD3 antibody made in CHO cells, captured by anti-human Fc
Briefly: SPR Carterra avidity, CHO anti-ID, *koff limit. The protocol: as §1, §2, §3

In test [1] the target is T8, ADI-26920 IgG.
T8 construct: anti-CD3 IgG
The experiment in a line: SPR Carterra avidity, CHO anti-ID, *koff limit. How it is done: as §1, §2, §3

Another test has as its target T9, CTL-19672 IgG.
T9 construct: IgG1 with the anti-CD3 variable domains of clone 38E4v1
The experiment in a line: BLI; tip anti-CD3 IgG, solution ADI-34145 IgG. How it is done: (§4) ForteBio affinity measurements were performed generally as previously described (Estep et al., MAbs. 2013 5(2):270-8). Briefly, ForteBio affinity measurements were performed by loading antibody IgG or Fabs on-line onto AHC sensors. Sensors were equilibrated off-line in assay buffer for 30 minutes and then monitored on-line for 60 seconds for baseline establishment. For avid binding measurement, sensors with loaded antibodies were exposed to IgG or Fab solutions for 3 minutes, afterwards they were transferred to assay buffer for 3 minutes for off-rate measurement. Kinetics data were fit using a 1:1 binding model in the data analysis software provided by ForteBio to obtain equilibrium dissociation constant (KD=koff/kₒₙ) values. In each column, tip-immobilized antibodies are listed first and solution antibodies second.
(§5) CTL-19613 is an IgG1 antibody prepared with anti-CD3 variable domains corresponding with those of clone 12C described in United States Publication Number US 2010/0183615 (e.g., see paragraphs 469-479 and FIG. 25 thereof), which also make up the CD3 binding domain of the bispecific antibody pasotuxizumab. […] In each column, tip-immobilized antibodies are listed first and solution antibodies second.
(In general: In BLI a coated tip is dipped into the sample, and binding shifts an interference pattern.)

Test [2] concerns the target T10, ADI-26913 IgG.
T10 construct: anti-CD3 IgG
Briefly: BLI; tip anti-CD3 IgG, solution ADI-34145 IgG. The protocol: as §4, §5

For the next test, the target named is T11, ADI-26906 IgG.
T11 construct: anti-CD3 IgG
The experiment in a line: BLI; tip anti-CD3 IgG, solution ADI-34145 IgG. How it is done: as §4, §5

Another test has as its target T12, ADI-22523 IgG.
T12 construct: anti-CD3 IgG
Briefly: BLI; tip anti-CD3 IgG, solution ADI-34145 IgG. The protocol:
as §4, §5

The target of a further test is CTL-19613 IgG. Briefly: BLI; tip anti-CD3 IgG, solution ADI-34145 IgG. The protocol: as §4, §5
A further test deals with T13, ADI-26954 IgG.
T13 construct: anti-CD3 IgG
Briefly: BLI; tip anti-CD3 IgG, solution ADI-34145 IgG. The protocol: as §4, §5

For the next test, the target named is T14, ADI-26916 IgG.
T14 construct: anti-CD3 IgG
The experiment in a line: BLI; tip anti-CD3 IgG, solution ADI-34145 IgG. How it is done: as §4, §5

For test [3], the target named is T8, ADI-26920 IgG. The experiment in a line: BLI; tip anti-CD3 IgG, solution ADI-34145 IgG. How it is done:
as §4, §5

In test [4] the target is T10, ADI-26913 IgG. The experiment in a line: SPR Carterra avidity, CHO anti-ID, *koff limit. The protocol: as §1, §2, §3
A further test addresses T15, ADI-26913 anti-CD3 bsIgG.
T15 construct: anti-HER2 IgG with one Fab arm replaced by the anti-CD3 scFv (printed 'Vx-VH', read as VL-VH); S354C and Y349C mutations; also called anti-CD3 bsIgG (ADI-26913 scFv); not shown: scFv linker; anti-HER2 Fab arm (heavy and light chain); hinge and Fc with S354C/Y349C
The experiment in a line: BLI; tip anti-CD3 bsIgG, solution ADI-34145 IgG. The protocol:
as §4
(§6) Additional analysis was conducted using bispecific antibody formats incorporating anti-CD3 antibody variable domains. Bispecific antibodies were prepared using standard IgG formats (bsIgG) with replacement of Fab arms with anti-CD3 scFvs in Vx-VH orientation and with S354C and Y349C mutations for disulfide stabilization. Antibodies used for Fab arm replacement were anti-HER2 IgG antibodies, with one Fab arm from each replaced by a scFv corresponding to a different anti-CD3 antibody. […] In each column, tip-immobilized antibodies are listed first and solution antibodies second. Anti-CD3 antibodies associated with incorporated scFvs are listed by antibody number.

A further test has as its target T16, ADI-26920 anti-CD3 bsIgG.
T16 construct: anti-HER2 IgG with one Fab arm replaced by the anti-CD3 scFv (printed 'Vx-VH', read as VL-VH); S354C and Y349C mutations; also called anti-CD3 bsIgG (ADI-26920 scFv); not shown: scFv linker; anti-HER2 Fab arm (heavy and light chain); hinge and Fc with S354C/Y349C
The experiment in a line: BLI; tip anti-CD3 bsIgG, solution ADI-34145 IgG. The protocol: as §4, §6

T8 sequence (VH, as listed by the source limits assumed, chain 1 of 2): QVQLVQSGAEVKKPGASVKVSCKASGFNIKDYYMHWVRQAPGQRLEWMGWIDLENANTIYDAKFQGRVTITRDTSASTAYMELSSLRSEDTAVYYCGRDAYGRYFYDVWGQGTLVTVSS
T8 sequence (VL, as listed by the source limits assumed, chain 2 of 2): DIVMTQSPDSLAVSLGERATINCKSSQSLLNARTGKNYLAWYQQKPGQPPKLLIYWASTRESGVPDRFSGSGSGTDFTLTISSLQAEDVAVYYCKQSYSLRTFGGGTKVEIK
T10 sequence (VH, as listed by the source limits assumed, chain 1 of 2): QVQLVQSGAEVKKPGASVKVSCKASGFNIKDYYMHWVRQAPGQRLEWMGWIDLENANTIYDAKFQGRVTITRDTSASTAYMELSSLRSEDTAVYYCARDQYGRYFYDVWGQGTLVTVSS
T10 sequence (VL, as listed by the source limits assumed, chain 2 of 2): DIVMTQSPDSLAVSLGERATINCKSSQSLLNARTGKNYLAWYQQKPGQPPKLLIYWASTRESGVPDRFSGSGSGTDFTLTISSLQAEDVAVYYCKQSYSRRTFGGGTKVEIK
T7 sequence (VH, as listed by the source, chain 1 of 2): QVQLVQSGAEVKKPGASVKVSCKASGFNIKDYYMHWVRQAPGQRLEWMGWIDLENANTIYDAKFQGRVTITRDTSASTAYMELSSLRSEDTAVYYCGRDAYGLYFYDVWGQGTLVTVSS
T3 sequence (VH, as listed by the source, chain 1 of 2): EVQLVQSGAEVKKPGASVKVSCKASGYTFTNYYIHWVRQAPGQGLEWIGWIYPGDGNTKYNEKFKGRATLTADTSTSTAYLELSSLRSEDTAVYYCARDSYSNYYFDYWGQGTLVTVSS
T3 sequence (VL, as listed by the source, chain 2 of 2): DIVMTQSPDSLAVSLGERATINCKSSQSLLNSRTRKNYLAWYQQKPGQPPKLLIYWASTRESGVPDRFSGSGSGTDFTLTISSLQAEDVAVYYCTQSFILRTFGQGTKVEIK
T2 sequence (VH, as listed by the source, chain 1 of 2): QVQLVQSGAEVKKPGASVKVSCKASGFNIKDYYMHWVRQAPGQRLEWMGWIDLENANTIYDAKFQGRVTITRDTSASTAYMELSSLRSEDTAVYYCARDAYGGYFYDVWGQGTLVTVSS
T2 sequence (VL, as listed by the source, chain 2 of 2): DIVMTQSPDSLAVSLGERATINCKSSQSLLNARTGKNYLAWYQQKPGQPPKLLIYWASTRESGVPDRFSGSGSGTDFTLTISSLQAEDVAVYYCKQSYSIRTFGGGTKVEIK
T11 sequence (VH, as listed by the source limits assumed, chain 1 of 2): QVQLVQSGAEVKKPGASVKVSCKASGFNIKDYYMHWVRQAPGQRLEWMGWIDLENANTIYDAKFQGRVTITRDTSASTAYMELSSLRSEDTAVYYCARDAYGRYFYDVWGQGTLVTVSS
T12 sequence (VH, as listed by the source limits assumed, chain 1 of 2): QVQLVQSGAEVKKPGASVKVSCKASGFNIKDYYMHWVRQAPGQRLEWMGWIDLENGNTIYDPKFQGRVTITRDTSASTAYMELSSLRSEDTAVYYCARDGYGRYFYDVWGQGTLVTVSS
T12 sequence (VL, as listed by the source limits assumed, chain 2 of 2): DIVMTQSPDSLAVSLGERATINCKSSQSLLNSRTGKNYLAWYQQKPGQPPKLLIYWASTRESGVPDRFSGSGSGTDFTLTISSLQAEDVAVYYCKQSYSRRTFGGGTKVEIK
T4 sequence (VH, as listed by the source limits assumed, chain 1 of 2): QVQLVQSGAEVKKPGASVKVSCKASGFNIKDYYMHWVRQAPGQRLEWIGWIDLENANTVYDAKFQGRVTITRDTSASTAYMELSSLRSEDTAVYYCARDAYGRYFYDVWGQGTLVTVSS
T4 sequence (VL, as listed by the source limits assumed, chain 2 of 2): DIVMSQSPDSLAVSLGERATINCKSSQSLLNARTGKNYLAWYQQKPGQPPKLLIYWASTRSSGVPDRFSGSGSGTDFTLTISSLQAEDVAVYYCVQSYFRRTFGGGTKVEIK
T5 sequence (VH, as listed by the source limits assumed, chain 1 of 2): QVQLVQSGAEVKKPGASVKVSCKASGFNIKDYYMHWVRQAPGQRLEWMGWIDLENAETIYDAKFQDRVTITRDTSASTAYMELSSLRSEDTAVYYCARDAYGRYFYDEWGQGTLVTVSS
T6 sequence (VH, as listed by the source, chain 1 of 2): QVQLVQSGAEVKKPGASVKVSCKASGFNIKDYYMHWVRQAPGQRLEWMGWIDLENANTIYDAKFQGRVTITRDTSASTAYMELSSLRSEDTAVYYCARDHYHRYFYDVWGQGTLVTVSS
T6 sequence (VL, as listed by the source, chain 2 of 2): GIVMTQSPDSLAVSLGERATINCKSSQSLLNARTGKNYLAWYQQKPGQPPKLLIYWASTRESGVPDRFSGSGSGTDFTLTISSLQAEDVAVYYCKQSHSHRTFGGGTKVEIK
T13 sequence (VH, as listed by the source limits assumed, chain 1 of 2): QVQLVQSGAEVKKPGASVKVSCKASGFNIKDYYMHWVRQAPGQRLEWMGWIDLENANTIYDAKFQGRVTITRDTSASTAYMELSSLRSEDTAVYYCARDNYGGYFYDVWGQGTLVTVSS
T13 sequence (VL, as listed by the source limits assumed, chain 2 of 2): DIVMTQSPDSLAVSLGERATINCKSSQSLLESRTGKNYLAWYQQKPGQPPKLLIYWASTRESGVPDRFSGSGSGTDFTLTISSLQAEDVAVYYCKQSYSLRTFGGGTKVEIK
T14 sequence (VH, as listed by the source, chain 1 of 2): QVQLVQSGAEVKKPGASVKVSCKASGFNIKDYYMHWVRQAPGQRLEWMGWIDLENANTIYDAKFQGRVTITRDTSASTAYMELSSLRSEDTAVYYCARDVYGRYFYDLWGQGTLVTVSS
T9 sequence (VH, as listed by the source limits assumed, chain 1 of 2): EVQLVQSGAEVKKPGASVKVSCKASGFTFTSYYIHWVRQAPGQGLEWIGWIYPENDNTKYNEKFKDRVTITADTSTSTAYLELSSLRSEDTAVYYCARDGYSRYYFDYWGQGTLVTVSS
T9 sequence (VL, as listed by the source limits assumed, chain 2 of 2): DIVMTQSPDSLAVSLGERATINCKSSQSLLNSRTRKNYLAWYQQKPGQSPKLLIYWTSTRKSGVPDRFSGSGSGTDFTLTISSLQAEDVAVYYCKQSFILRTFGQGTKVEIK

B1: ADI-34134 IgG (antibody, V domains shown)
VH: QVQLVQSGAEVKKPGSSVKVSCKASGGTFSSYAISWVRQAPGQGLEWMGGIIPIFGTANYAQKFQGRVTITADESTSTAYMELSSLRSEDTAVYYCARGAPNYYGSGGYDDGWFDPWGQGTLVTVSS
VL: EIVLTQSPGTLSLSPGERATLSCRASQSVSSDYLAWYQQKPGQAPRLLIYGASSRATGIPDRFSGSGSGTDFTLTISRLEPEDFAVYYCQQFGRVPTFGGGTKVEIK
Consider B1, for which the Kd with ADI-26919 came out at 0.11 nM; with ADI-26943, 0.1 nM; in the test with CTL-62223, 0.19 nM; in the test with ADI-50024, 0.26 nM; with ADI-67445, 0.13 nM; in the test with ADI-74967, 0.11 nM. In addition, the figures for the Kd in the test with ADI-26924 and with ADI-26920 IgG [1] were 0.1 nM and 0.11 nM, respectively.

B2: ADI-34145 IgG (antibody, V domains shown)
VH: EVQLLESGGGLVQPGGSLRLSCAASGFTFSSYAMSWVRQAPGKGLEWVSTISGSGGSTYYADSVKGRFTISRDNSKNTLYLQMNSLRAEDTAVYYCARLGGRRGSGSSYYYYYGMDVWGQGTTVTVSS
VL: not shown
notes: anti-ID IgG
As for B2, the binding result with CTL-19672 IgG and with CTL-19613 IgG was “no binding” in each case. The Kd in the test with ADI-26913 IgG [2] stood at 1.03 nM; with ADI-26906 IgG, 8.39 nM; with ADI-22523 IgG it was 2.6 nM; with ADI-26954 IgG it was 1.82 nM; with ADI-26916 IgG, 7.75 nM; with ADI-26920 IgG [3], 3.5 nM. For the same molecule, the Kd in the test with ADI-26913 IgG [4] stood at 4.4 nM; in the test with ADI-26913 anti-CD3 bsIgG it was 14.7 nM; in the test with ADI-26920 anti-CD3 bsIgG, 6.72 nM.

These data come from patent US20250019439A1 (Adimab, published 2025).
